Results: patent US20110263014

Experiments:
[1] = biological target: in vitro-translated human Nanog (hNanog), Q9H9S0
[2] = biological target: T1, mouse Nanog (mNanog), Q80Z64
T1 chain: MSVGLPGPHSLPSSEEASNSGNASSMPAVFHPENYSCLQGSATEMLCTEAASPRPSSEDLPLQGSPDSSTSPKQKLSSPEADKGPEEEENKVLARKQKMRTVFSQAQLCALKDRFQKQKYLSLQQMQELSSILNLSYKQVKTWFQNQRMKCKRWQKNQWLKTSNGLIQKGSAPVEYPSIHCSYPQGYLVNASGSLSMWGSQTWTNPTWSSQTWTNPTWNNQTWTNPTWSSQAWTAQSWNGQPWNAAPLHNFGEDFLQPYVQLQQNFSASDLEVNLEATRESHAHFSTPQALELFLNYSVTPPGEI

in vitro-translated human Nanog (hNanog), Q9H9S0, sequence (Q9H9S0 whole entry): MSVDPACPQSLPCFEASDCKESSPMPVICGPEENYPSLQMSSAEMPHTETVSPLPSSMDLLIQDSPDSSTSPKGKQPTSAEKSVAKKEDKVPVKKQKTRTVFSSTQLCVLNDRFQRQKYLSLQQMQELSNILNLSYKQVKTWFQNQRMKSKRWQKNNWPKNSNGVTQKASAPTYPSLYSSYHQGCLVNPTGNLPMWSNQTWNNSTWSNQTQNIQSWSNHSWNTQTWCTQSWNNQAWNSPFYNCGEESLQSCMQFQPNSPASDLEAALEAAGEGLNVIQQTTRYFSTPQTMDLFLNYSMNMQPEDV

B1: recombinant active caspase-3 (protein)
chain: SGISLDNSYKMDYPEMGLCIIINNKNFHKSTGMTSRSGTDVDAANLRETFRNLKYEVRNKNDLTREEIVELMRDVSKEDHSKRSSFVCVLLSHGEEGIIFGTNGPVDLKKITNFFRGDRCRSLTGKPKLFIIQACRGTELDCGIETDSGVDDDMACHKIPVEADFLYAYSTAPGYYSWRNSKDGSWFIQSLCAMLKQYADKLEFMHILTRVNRKVATEFESFSFDATFHAKKQIPCIVSMLTKELYFYH
With B1 the “in vitro caspase-3 cleavage assay” value (Oct4) was “remained uncleaved (data not shown)”, the “in vitro caspase-3 cleavage assay” value (Sox2) was “remained uncleaved (data not shown)” and the “in vitro caspase-3 cleavage assay” value [1] was “Caspase-3 cleaved human (h) Nanog in vitro”. For the same protein, the “cleavage of immunoprecipitated mNanog by recombinant caspase” value [2] was “Only caspase-9 effectively cleaved mNanog into a 27 kDa fragment” and the “in vitro caspase-3 cleavage assay” value [2] was “very little or no cleavage of recombinant mNanog by caspase-3 was observed”.
